Measurements taken from US20210398607A1, “METHODS FOR DESIGNING ANTIBODY SMALL-MOLECULE CONJUGATES” (priority 2020, published 2021).
Numbering of substitutions follows the chain as printed. Where two headings read alike, the source gives them in different places.

Key:
mSA = details: read-out: biotin/mSA affinity, fluorescence polarization spectroscopy, cited from earlier work
[1] = molecular target: T1, mSA (monomeric streptavidin construct), wild type; assay: SPR
T1 construct: also called mSAWT
T1 chain: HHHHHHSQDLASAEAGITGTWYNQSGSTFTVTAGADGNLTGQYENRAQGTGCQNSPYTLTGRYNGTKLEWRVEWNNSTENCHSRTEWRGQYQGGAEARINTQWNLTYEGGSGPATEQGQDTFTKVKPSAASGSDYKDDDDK

[2] = molecular target: T1, mSA (monomeric streptavidin construct), …; assay: SPR, conjugate injected at 1, 2.5, 5, 10, 20 nM over immobilized mSAWT; fit curve; one of three replicates
[3] = molecular target: T1, mSA (monomeric streptavidin construct), …; assay: SPR, conjugate injected at 1, 2.5, 5, 10, 20 nM; fit curve; replicate 2. The panel title prints 'against immobilized mSAS27A'; target taken as mSAWT after the legend of FIG. 6B and the matching data points of FIG. 6C
[4] = molecular target: T1, mSA (monomeric streptavidin construct), …; assay: SPR, conjugate injected at 1, 2.5, 5, 10, 20 nM; fit curve; replicate 3. The panel title prints 'against immobilized mSAS27A'; target taken as mSAWT after the legend of FIG. 6B and the matching data points of FIG. 6C
[5] = molecular target: T1, mSA (monomeric streptavidin construct), …; assay: SPR, conjugate injected at 1, 2.5, 5, 10, 20 nM; fit curve; replicate 2. The panel title prints 'against immobilized mSAS27A'; target taken as mSAWT after the legend of FIG. 6B (other two replicates against mSAWT are in FIG. 11) and the matching data points of FIG. 6C
[6] = molecular target: T1, mSA (monomeric streptavidin construct), …; assay: SPR, immobilized mSA
[7] = molecular target: T2, mSAS27A (mSA with single mutation S27A); assay: SPR
T2 chain: T1 chain with S27A

[8] = molecular target: T1, mSA (monomeric streptavidin construct), …; assay: SPR, 25 °C, immobilized mSA
[9] = molecular target: T2, mSAS27A (mSA with single mutation S27A); assay: SPR; reference mSAS27A/biotin
[10] = molecular target: T1, mSA (monomeric streptavidin construct), …; assay: SPR, 25 °C; reference mSA on immobilized biotin
[11] = molecular target: T1, mSA (monomeric streptavidin construct), …; assay: SPR, conjugate injected at 1, 2.5, 5, 10, 20 nM over immobilized mSAWT; fit curve; replicate 2
[12] = molecular target: T1, mSA (monomeric streptavidin construct), …; assay: SPR, conjugate injected at 1, 2.5, 5, 10, 20 nM over immobilized mSAWT; fit curve; replicate 3
[13] = molecular target: T1, mSA (monomeric streptavidin construct), …; assay: SPR, conjugate injected at 1, 2.5, 5, 10, 20 nM over immobilized mSAWT; fit curve; one of three replicates
[14] = molecular target: T2, mSAS27A (mSA with single mutation S27A); assay: SPR, conjugate injected at 62.5, 125, 250, 500 nM and 1 µM over immobilized mSAS27A; fit curve; one of three replicates
[15] = molecular target: T2, mSAS27A (mSA with single mutation S27A); assay: SPR, conjugate injected at 62.5, 125, 250, 500 nM and 1 uM over immobilized mSAS27A; biological replicate 2; fit curve
[16] = molecular target: T2, mSAS27A (mSA with single mutation S27A); assay: SPR, conjugate injected at 62.5, 125, 250, 500 nM and 1 uM over immobilized mSAS27A; biological replicate 3; fit curve
[17] = molecular target: T1, mSA (monomeric streptavidin construct), …; assay: SPR; variant v119
[18] = molecular target: T1, mSA (monomeric streptavidin construct), …; assay: SPR, conjugate injected at 0.5, 1, 2.5, 5, 10 nM over immobilized mSAWT; fit curve; replicate 2
[19] = molecular target: T1, mSA (monomeric streptavidin construct), …; assay: SPR, conjugate injected at 0.5, 1, 2.5, 5, 10 nM over immobilized mSAWT; fit curve; replicate 3
[20] = molecular target: T1, mSA (monomeric streptavidin construct), …; assay: SPR, conjugate injected at 0.5, 1, 2.5, 5, 10 nM over immobilized mSAWT; fit curve; one of three replicates
[21] = molecular target: T1, mSA (monomeric streptavidin construct), …; assay: SPR; variant v149
[22] = molecular target: T1, mSA (monomeric streptavidin construct), …; assay: SPR, conjugate injected at 0.5, 1, 2.5, 5, 10 nM over immobilized mSAWT; fit curve; replicate 2
[23] = molecular target: T1, mSA (monomeric streptavidin construct), …; assay: SPR, conjugate injected at 0.5, 1, 2.5, 5, 10 nM over immobilized mSAWT; fit curve; replicate 3
[24] = molecular target: T1, mSA (monomeric streptavidin construct), …; assay: SPR, conjugate injected at 0.5, 1, 2.5, 5, 10 nM over immobilized mSAWT; fit curve; one of three replicates
[25] = molecular target: T1, mSA (monomeric streptavidin construct), …; assay: SPR, conjugate injected at 0.5, 1, 2.5, 5, 10 nM over immobilized mSAWT; fit curve; replicate 2
[26] = molecular target: T1, mSA (monomeric streptavidin construct), …; assay: SPR, conjugate injected at 0.5, 1, 2.5, 5, 10 nM over immobilized mSAWT; fit curve; replicate 3
[27] = molecular target: T1, mSA (monomeric streptavidin construct), …; assay: SPR, conjugate injected at 0.5, 1, 2.5, 5, 10 nM over immobilized mSAWT; fit curve; one of three replicates
[28] = molecular target: T2, mSAS27A (mSA with single mutation S27A); assay: SPR, conjugate injected at 12.5, 25, 50, 100, 200 nM over immobilized mSAS27A; fit curve; one of three replicates
[29] = molecular target: T2, mSAS27A (mSA with single mutation S27A); assay: SPR, conjugate injected at 12.5, 25, 50, 100 and 200 nM over immobilized mSAS27A; biological replicate 2; fit curve
[30] = molecular target: T2, mSAS27A (mSA with single mutation S27A); assay: SPR, conjugate injected at 12.5, 25, 50, 100 and 200 nM over immobilized mSAS27A; biological replicate 3; fit curve

Question: For O=C(O)CCCC[C@@H]1SC[C@@H]2NC(=O)N[C@@H]21 [biotin], which Kd (mSA; 4° C.) is on record?
Answer: Its Kd is 2.8 ± 0.5 nM.

Question: And the Kd (mSA; 37° C.)?
Answer: Its Kd is 5.5 ± 0.2 nM.

B1: 2X89.A-CCAA-biotin57 (VHH)
VHH: QVQLQESGGGSVQAGGSLRLSCAASGYTDSRYAMAWFRQAPGKEREWVARINSGRDCTYYADSVKGRFTFSQDNAKNTVYLQMDSLEPEDTATYYCATDIPLRARDIVAKGGDGFRYWGQGTQVTVSS
notes: also called parent conjugate
Question: Which Kd [1] does the source give for B1 here?
Answer: The Kd was 0.8 nM.

Question: What about the Kd [2] of the same molecule?
Answer: Its Kd is 0.82 nM.

Question: And the koff [2]?
Answer: The koff was 0.000771 s⁻¹.

Question: And the kon [2]?
Answer: Its kon is 940000 M⁻¹ s⁻¹.

Question: What about the Kd [3] of the same molecule?
Answer: Its Kd is 1.01 nM.

Question: What about the koff [3] of the same molecule?
Answer: Its koff is 0.000718 s⁻¹.

Question: What about the Kd [4] of the same molecule?
Answer: The Kd was 0.54 nM.

Question: And the koff [4]?
Answer: The koff was 0.000555 s⁻¹.

Question: What about the kon [4] of the same molecule?
Answer: Its kon is 1.03e+06 M⁻¹ s⁻¹.

Question: And the kon [5]?
Answer: Its kon is 710000 M⁻¹ s⁻¹.

B2: 4NBX.B nanobody, wild type (unconjugated) (VHH)
VHH: QVQLQESGGGLAQAGGSLRLSCAASGRTFSMDPMAWFRQPPGKEREFVAAGSSTGRTTYYADSVKGRFTISRDNAKNTVYLQMNSLKPEDTAVYYCAAAPYGANWYRDEYAYWGQGTQVTVSS
notes: also called Wildtype 4NBX.B; 4NBX.B WT
Question: Does B2 bind [6]?
Answer: Result: no binding (tested: 100 nM)

B3: 4NBX.B-biotin103 (VHH)
VHH: B2 VHH with A103C
notes: also called 4NBX.B-biotin103 WT
Question: With B3 as the molecule, how does the Kd [7] read?
Answer: The Kd was 245 nM.

Question: And the Kd [8]?
Answer: The Kd was 1.8 nM.

Question: And the “fold affinity improvement over biotin/mSAS27A” value [9]?
Answer: Its value is 5 fold.

Question: What about the “fold affinity improvement over biotin/mSA” value [10] of the same molecule?
Answer: Its value is 4 fold.

Question: And the Kd [11]?
Answer: Its Kd is 1.59 nM.

Question: And the koff [11]?
Answer: The koff was 0.00197 s⁻¹.

Question: And the kon [11]?
Answer: The kon was 1.24e+06 M⁻¹ s⁻¹.

Question: And the Kd [12]?
Answer: Its Kd is 1.92 nM.

Question: And the koff [12]?
Answer: Its koff is 0.00225 s⁻¹.

Question: And the kon [12]?
Answer: Its kon is 1.17e+06 M⁻¹ s⁻¹.

Question: And the Kd [13]?
Answer: The Kd was 1.86 nM.

Question: And the koff [13]?
Answer: The koff was 0.00221 s⁻¹.

Question: What about the kon [13] of the same molecule?
Answer: The kon was 1.19e+06 M⁻¹ s⁻¹.

Question: And the Kd [14]?
Answer: The Kd was 279 nM.

Question: And the koff [14]?
Answer: Its koff is 0.12 s⁻¹.

Question: And the kon [14]?
Answer: Its kon is 430000 M⁻¹ s⁻¹.

Question: And the Kd [15]?
Answer: The Kd was 269 nM.

Question: And the koff [15]?
Answer: Its koff is 0.296 s⁻¹.

Question: And the kon [15]?
Answer: Its kon is 1.1e+06 M⁻¹ s⁻¹.

Question: What about the Kd [16] of the same molecule?
Answer: The Kd was 188 nM.

Question: And the koff [16]?
Answer: The koff was 0.149 s⁻¹.

Question: What about the kon [16] of the same molecule?
Answer: The kon was 790000 M⁻¹ s⁻¹.

B4: 4NBX.B-biotin103 v119 (VHH)
VHH: B2 VHH with M31H, D32A, A103C, N104S, W105H
Question: Which “fold KD improvement over 4NBX.B-biotin103 WT” value [1] does the source give for B4 here?
Answer: Its value is roughly 2 fold.

Question: What about the Kd [17] of the same molecule?
Answer: Its Kd is 0.9 nM.

Question: And the Kd [18]?
Answer: Its Kd is 0.76 nM.

Question: And the koff [18]?
Answer: Its koff is 0.00186 s⁻¹.

Question: And the kon [18]?
Answer: The kon was 2.45e+06 M⁻¹ s⁻¹.

Question: And the Kd [19]?
Answer: The Kd was 1.11 nM.

Question: And the koff [19]?
Answer: The koff was 0.00213 s⁻¹.

Question: What about the kon [19] of the same molecule?
Answer: The kon was 1.93e+06 M⁻¹ s⁻¹.

Question: What about the Kd [20] of the same molecule?
Answer: The Kd was 0.78 nM.

Question: What about the koff [20] of the same molecule?
Answer: The koff was 0.00177 s⁻¹.

Question: What about the kon [20] of the same molecule?
Answer: The kon was 2.3e+06 M⁻¹ s⁻¹.

B5: 4NBX.B-biotin103 v149 (VHH)
VHH: B2 VHH with M31R, D32S, A103C, N104A, W105R
Question: Which results are given for B5?
Answer: fold KD improvement over biotin/mSAWT [1]: > 20 fold; fold faster kon compared to v119 [1]: ~4 fold; koff ratio relative to v119 [1]: ~0.2 fold; Kd [21]: 0.12 nM; Kd [22]: 0.11 nM; koff [22]: 0.00106 s⁻¹; kon [22]: 9.78e+06 M⁻¹ s⁻¹; Kd [23]: 0.14 nM; koff [23]: 0.00081 s⁻¹; kon [23]: 5.84e+06 M⁻¹ s⁻¹; Kd [24]: 0.11 nM; koff [24]: 0.000923 s⁻¹; kon [24]: 8.7e+06 M⁻¹ s⁻¹

B6: 4NBX.B-biotin103 v186_Fr (VHH)
VHH: QVQLQESGGGLVQAGGSLRLSCAASGRTFSRSPMAWYRQPPGKEREFVAAGSSTGTTTYYADSVKGRFTISRDNAKNTVYLQMNSLKPEDTAVYYCAAAPLGCARKFAESAYWGQGTQVTVSS
notes: also called wildtype v186_Fr
Question: With B6 as the molecule, how does the Kd [1] read?
Answer: Its Kd is 0.2 nM.

Question: And the “fold KD improvement over biotin/mSAWT” value [1]?
Answer: Its value is greater than 20 fold.

Question: And the Kd [7]?
Answer: The Kd was 54 nM.

Question: And the “fold KD improvement (over biotin/mSAS27A)” value [7]?
Answer: The value was roughly 20 fold.

Question: What about the Kd [25] of the same molecule?
Answer: The Kd was 0.16 nM.

Question: What about the koff [25] of the same molecule?
Answer: The koff was 0.00079 s⁻¹.

Question: And the kon [25]?
Answer: The kon was 5.04e+06 M⁻¹ s⁻¹.

Question: And the Kd [26]?
Answer: The Kd was 0.21 nM.

Question: And the koff [26]?
Answer: The koff was 0.00089 s⁻¹.

Question: What about the kon [26] of the same molecule?
Answer: The kon was 4.26e+06 M⁻¹ s⁻¹.

Question: And the Kd [27]?
Answer: Its Kd is 0.23 nM.

Question: What about the koff [27] of the same molecule?
Answer: Its koff is 0.0011 s⁻¹.

Question: And the kon [27]?
Answer: The kon was 4.79e+06 M⁻¹ s⁻¹.

Question: And the Kd [28]?
Answer: Its Kd is 49.6 nM.

Question: What about the koff [28] of the same molecule?
Answer: The koff was 0.0912 s⁻¹.

Question: What about the kon [28] of the same molecule?
Answer: The kon was 1.84e+06 M⁻¹ s⁻¹.

Question: And the Kd [29]?
Answer: The Kd was 56.3 nM.

Question: What about the koff [29] of the same molecule?
Answer: Its koff is 0.0879 s⁻¹.

Question: And the kon [29]?
Answer: The kon was 1.56e+06 M⁻¹ s⁻¹.

Question: And the Kd [30]?
Answer: The Kd was 55.5 nM.

Question: And the koff [30]?
Answer: The koff was 0.0872 s⁻¹.

Question: What about the kon [30] of the same molecule?
Answer: The kon was 1.57e+06 M⁻¹ s⁻¹.
